Data: US20210024639A1 (AGOMAB THERAPEUTICS, published 2021)

Columns and labels:
[1] = target: T1, mouse MET-Fc chimeric protein (R&D Systems) (mouse, UniProt P16056 25-929, limits assumed); experiment: competition ELISA, mMET-Fc in solid phase, competitor 0.3 nM biotinylated mHGF
T1 construct: bought (R&D Systems); also called mMET; not shown: Fc
How it was run: (§1)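 Values are IC₅₀, the antibody level reaching half-maximal competition, and IMAX, the highest percent competition at saturation. Each antibody was added from 0 to 120 nM alongside HGF labelled at the N-terminus with NHS-LC-biotin, on immobilized MET-Fc.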

[2] = target: T2, native human MET on living human cells (human, UniProt P08581 25-1390); experiment: cell-based or functional assay
[3] = target: T3, native mouse MET on living mouse cells (mouse, UniProt P16056 25-1379); experiment: cell-based or functional assay
[4] = target: human MET ECD mutant I (mutations 6, 7, 8) (human) (UniProt P08581); experiment: ELISA, MET ECD mutant in solid phase, mAb 0-50 nM
[5] = target: human MET ECD mutant J (mutations 6, 7) (human) (UniProt P08581); experiment: ELISA, MET ECD mutant in solid phase, mAb 0-50 nM
[6] = target: T2, native human MET on living human cells; experiment: flow cytometry, A549 cells
How it was run: (§2)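 PE fluorescence read-out: living cells stained with chimeric anti-MET antibodies, then PE-conjugated anti-human IgG1 secondary, analysed by flow cytometry. Values expressed as maximal binding (EMAX).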

[7] = target: T4, human MET-Fc chimeric protein (R&D Systems) (human, UniProt P08581 25-932); experiment: competition ELISA, hMET-Fc in solid phase, competitor 0.3 nM biotinylated hHGF
T4 construct: extracellular domain; bought (R&D Systems); also called hMET; not shown: Fc portion of human IgG1
How it was run: as §1

[8] = target: T3, native mouse MET on living mouse cells; experiment: flow cytometry, MLP29 cells
How it was run: as §2

[9] = target: T2, native human MET on living human cells; experiment: cell-based or functional assay; remark: listed apart in the source
[10] = target: T3, native mouse MET on living mouse cells; experiment: cell-based or functional assay; remark: listed apart in the source

IMAX (maximum % competition) [1]: 62.9% | % binding (EMAX) compared to WT MET [4]: 100% | % binding (EMAX) compared to WT MET [5]: 91.2% | EMAX (% relative to control) [6]: 117% | IMAX (maximum % competition) [7]: 63.2% | EMAX (% relative to control) [8]: 116% | cell scattering score, HPAF-II, 0.001 nM [9]: 0 score 0-4 | cell scattering score, HPAF-II, 0.004 nM [9]: 0 score 0-4 | cell scattering score, HPAF-II, 0.012 nM [9]: 1 score 0-4 | cell scattering score, HPAF-II, 0.037 nM [9]: 2 score 0-4 | cell scattering score, HPAF-II, 0.111 nM [9]: 3 score 0-4 | cell scattering score, HPAF-II, 0.333 nM [9]: 4 score 0-4 | cell scattering score, HPAF-II, 1.000 nM [9]: 4 score 0-4 | cell scattering score, HPAF-II, 3.000 nM [9]: 4 score 0-4 | cell scattering score, HPAF-II, 9.000 nM [9]: 4 score 0-4 | cell scattering score, MLP29, 0.001 nM [10]: 0 score 0-4 | cell scattering score, MLP29, 0.004 nM [10]: 0 score 0-4 | cell scattering score, MLP29, 0.012 nM [10]: 0 score 0-4 | cell scattering score, MLP29, 0.037 nM [10]: 1 score 0-4 | cell scattering score, MLP29, 0.111 nM [10]: 2 score 0-4 | cell scattering score, MLP29, 0.333 nM [10]: 4 score 0-4 | cell scattering score, MLP29, 1.000 nM [10]: 4 score 0-4 | cell scattering score, MLP29, 3.000 nM [10]: 4 score 0-4 | cell scattering score, MLP29, 9.000 nM [10]: 4 score 0-4
B1: chimeric llama-human IgG1 mAb 71G3 (antibody, V domains shown)
VH: QVQLVESGGGLVQPGGSLRVSCAASGFTFSTYYMSWVRQAPGKGLEWVSDIRTDGGTYYADSVKGRFTMSRDNAKNTLYLQMNSLKPEDTALYYCARTRIFPSGYDYWGQGTQVTVSS
VL: QAVVTQEPSLSVSPGGTVTLTCGLSSGSVTTSNYPGWFQQTPGQAPRTLIYNTNSRHSGVPSRFSGSISGNKAALTIMGAQPEDEADYYCSLYPGSTTVFGGGTHLTVL
protection from staurosporine, viability EC50, MCF10A [2]: 5.04 nM | protection from staurosporine, viability EMAX, MCF10A [2]: 65.2% | protection from staurosporine, viability EC50, MLP29 [3]: 4.85 nM | protection from staurosporine, viability EMAX, MLP29 [3]: 62.3%
